{
  "source": "patent EP4722228A1",
  "about": "(The University of Tokyo, dated 2024)",
  "binders": {"B1": {"name": "Homodimer of MuSK7 with an introduced palmitoyl group (MuSK7-pal) (peptide)", "peptide": "{CH2CO}-[dY]PSYHTNVVASLKRC", "modifications": "thioether N-15; also: homodimer: two peptides condensed via C-terminal Cys carboxyl with linking unit bearing palmitic acid", "notes": "also called Dimeric peptide"}},
  "key": {"[1]": {"target": "T1, Recombinant Rat MuSK Fc Chimera Protein (catalog number: 9847-MK-050, R&D Systems) (rat, UniProt Q62838 22-494)", "T1 construct": "Bought reagent; also called Fc-tagged rat MuSK; not shown: Fc protein of the bought chimera", "T1 sequence (looked up)": "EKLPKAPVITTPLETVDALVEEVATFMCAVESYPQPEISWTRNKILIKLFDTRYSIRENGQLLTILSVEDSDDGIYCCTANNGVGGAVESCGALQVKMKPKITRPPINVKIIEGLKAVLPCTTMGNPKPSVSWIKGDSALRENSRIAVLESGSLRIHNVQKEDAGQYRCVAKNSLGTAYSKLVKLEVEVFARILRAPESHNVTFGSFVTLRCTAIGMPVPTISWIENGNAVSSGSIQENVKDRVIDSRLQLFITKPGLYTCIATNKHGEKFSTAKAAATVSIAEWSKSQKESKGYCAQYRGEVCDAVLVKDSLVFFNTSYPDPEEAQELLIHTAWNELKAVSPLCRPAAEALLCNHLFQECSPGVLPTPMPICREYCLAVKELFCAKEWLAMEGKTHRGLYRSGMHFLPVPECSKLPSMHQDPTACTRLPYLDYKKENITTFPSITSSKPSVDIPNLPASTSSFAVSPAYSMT", "assay": "SPR (Biacore T200), Fc-tagged rat MuSK on Protein G/A chip, 1:1 fit"}, "[2]": {"target": "Fc-tagged mouse MuSK extracellular domain (mouse)", "sequence (chain, as listed by the source limits assumed)": "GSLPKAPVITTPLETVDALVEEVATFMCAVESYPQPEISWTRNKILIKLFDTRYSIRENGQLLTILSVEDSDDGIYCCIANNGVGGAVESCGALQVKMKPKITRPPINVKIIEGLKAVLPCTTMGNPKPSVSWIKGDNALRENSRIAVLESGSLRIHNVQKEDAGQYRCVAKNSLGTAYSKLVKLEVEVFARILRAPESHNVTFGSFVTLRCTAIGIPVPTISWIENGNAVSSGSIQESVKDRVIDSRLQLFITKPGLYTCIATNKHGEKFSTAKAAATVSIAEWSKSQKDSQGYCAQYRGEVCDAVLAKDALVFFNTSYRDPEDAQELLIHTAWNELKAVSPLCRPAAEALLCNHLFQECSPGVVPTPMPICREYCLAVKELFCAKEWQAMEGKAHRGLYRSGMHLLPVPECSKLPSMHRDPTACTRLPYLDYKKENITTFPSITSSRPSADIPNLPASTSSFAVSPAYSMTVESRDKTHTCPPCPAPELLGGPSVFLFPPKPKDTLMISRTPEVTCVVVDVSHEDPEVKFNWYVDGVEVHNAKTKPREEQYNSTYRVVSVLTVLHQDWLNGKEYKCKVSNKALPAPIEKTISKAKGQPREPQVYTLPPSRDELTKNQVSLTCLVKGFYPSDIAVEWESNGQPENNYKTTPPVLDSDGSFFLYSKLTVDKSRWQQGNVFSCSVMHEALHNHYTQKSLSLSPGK", "assay": "SPR (Biacore T200), Fc-tagged mouse MuSK on Protein G/A chip, 1:1 fit"}},
  "note": "Bridge positions count the residues as written; N and C are the ends. Square brackets hold non-standard residues; d marks the D form. Ends that are not written are not given here.",
  "data": [
    {"binder": "B1", "values": [
      {"measurement": "Kd", "setting": "[1]", "value": 2, "unit": "nM"},
      {"measurement": "Kd", "setting": "[2]", "value": 8.8, "unit": "nM"}
    ]}
  ]
}
